Key:
GM-CSF = GM-CSF production in small intestine after oral rhLF (ELISA); assay type: in vivo, mice; settings: oral 300 mg/kg/day three days
Experimental: Recombinant human lactoferrin or placebo were orally administered to mice, and the production of GM-CSF in the small intestine was measured.
Mice (5 animals per group) were treated for three days daily with 300 mg/kg/day of rhLF. For a control, mice were only administered the pharmaceutical carrier. Twenty-four hours following administration of the LF or placebo for 3 days, animals were and the small intestinal tissue was removed for further analysis. Small intestinal epithelium was homogenized using a lysis buffer consisting of PBS, 1% Nonidet P-40, 0.5% sodium deoxycholate, and 0.1% sodium dodecyl sulphate containing 10 μg/ml PhenylMetheylsulfonyl fluoride. Homogenate was centrifuged at 15,000 rpm for 10 minutes and the supernatant stored at −80 C. till it was tested for GM-CSF levels using an ELISA kit.

[1] = tested on: murine squamous carcinoma cell line (SCCVII); assay: SCCVII floor-of-mouth tumor growth, oral rhLF and/or cisplatin (Example 6); assay type: in vivo, immunocompetent C3H mice; settings: rhLF alone 200 mg/kg oral once daily days 5-12
Experimental: A murine squamous carcinoma cell line (SCCVII) was injected into the floor of the mouth through the neck skin of immunocompetent C3H mice (Day 0). […] Tumors were measured in three dimensions with calipers.
Tumor-bearing mice were randomized into a control group and seven groups receiving rhLF and/or cisplatin. RhLF (4 mg; 200 mg/Kg) was administered once daily by oral gavage for 8 days on days 5 through 12. Cisplatin was administered as a single dose of 5 mg/Kg given intraperitoneally either at the start of rhLF (day 5), in the middle (day 8) or at the end (day 12) of rhLF therapy. Animals were sacrificed on day 12 post-implantation and the residual tumor masses were measured and processed for later additional analyses.

[2] = tested on: Human squamous cell carcinoma (O12); assay: Tumor growth inhibition by rhLF in O12 tumor model in mice (Example 1); assay type: in vivo, athymic nude mice
Experimental: Human squamous cell carcinoma (O12) was used. The cells were injected into the right flank of athymic nude mice. rhLF was administered either intratumorally (49 animals, 7 doses ranging from 0.05 μg to 125 μg per dose), intravenously (7 animals, 125 ug/dose) or orally (7 animals 20 mg/dose). Control animals were treated with only the vehicle; no rhLF was administered to the control animals. rhLF was administered twice a day for either five days (intravenous group) or eight days (all other groups) starting 11 days after inoculation with tumor cells to allow formation of established tumors.
The efficacy of treatment was evaluated by measuring the solid tumor size during and at the end of the experiment; the body weights were also determined at the time of tumor measurements.

B1: Recombinant human lactoferrin (protein, UniProt P02788 20-710, looked up)
Lactotransferrin: GRRRSVQWCAVSQPEATKCFQWQRNMRKVRGPPVSCIKRDSPIQCIQAIAENRADAVTLDGGFIYEAGLAPYKLRPVAAEVYGTERQPRTHYYAVAVVKKGGSFQLNELQGLKSCHTGLRRTAGWNVPIGTLRPFLNWTGPPEPIEAAVARFFSASCVPGADKGQFPNLCRLCAGTGENKCAFSSQEPYFSYSGAFKCLRDGAGDVAFIRESTVFEDLSDEAERDEYELLCPDNTRKPVDKFKDCHLARVPSHAVVARSVNGKEDAIWNLLRQAQEKFGKDKSPKFQLFGSPSGQKDLLFKDSAIGFSRVPPRIDSGLYLGSGYFTAIQNLRKSEEEVAARRARVVWCAVGEQELRKCNQWSGLSEGSVTCSSASTTEDCIALVLKGEADAMSLDGGYVYTAGKCGLVPVLAENYKSQQSSDPDPNCVDRPVEGYLAVAVVRRSDTSLTWNSVKGKKSCHTAVDRTAGWNIPMGLLFNQTGSCKFDEYFSQSCAPGSDPRSNLCALCIGDEQGENKCVPNSNERYYGYTGAFRCLAENAGDVAFVKDVTVLQNTDGNNNEAWAKDLKLADFALLCLDGKRKPVTEARSCHLAMAPNHAVVSRMDKVERLKQVLLHQQAKFGRNGSDCPDKFCLFQSETKNLLFNDNTECLARLHGKTTYEKYLGPQYVAGITNLKKCSTSPLLEACEFLRK
notes: human lactoferrin produced recombinantly
GM-CSF Mean (SEM) (GM-CSF; 24 h after last dose): 7.74 (0.19) pg
GM-CSF Increase over Placebo (GM-CSF; p < 0.01): 19.4% (p < 0.01)
TGI (%) Relative to Placebo [1]: 33%
Inhibition Relative to Placebo ([2]; intratumoral, twice a day for eight days, 0.05 μg to 125 μg per dose, Day 19): 28%
Inhibition Relative to Placebo ([2]; intratumoral, twice a day for eight days, 0.05 μg to 125 μg per dose, Day 28): 46%
Inhibition Relative to Placebo ([2]; intravenous 125 ug/dose twice a day for five days, Day 19): 55%
Inhibition Relative to Placebo ([2]; intravenous 125 ug/dose twice a day for five days, Day 28): 65%
Inhibition Relative to Placebo ([2]; oral 20 mg/dose twice a day for eight days, Day 19): 76%
Inhibition Relative to Placebo ([2]; oral 20 mg/dose twice a day for eight days, Day 28): 80%

From US7901879B2, “Lactoferrin in the treatment of malignant neoplasms and other hyperproliferative diseases” (Agennix Incorporated, priority 2002, dated 2011)
